Source: US20110318339A1 (FABRUS, published 2011)
Numbering of substitutions follows the chain as printed. In names and notes the source's numbering stands. Values belong to the binder of their own block, whether it stands above or below them.

What was measured:
[1] = molecular target: T1, recombinant mouse DLL4 (Cat# 1389-D4-050/CF, R&D Systems) (mouse, UniProt Q9JI71 28-525); experiment: ELISA, mDLL4 coated 0.5 ng/ul, Fab 0.08 nM
T1 construct: Bought protein; also called mDLL4
Description: (§1) The plate was blocked by adding 1% BSA in Tris-buffered Saline Tween (TBST) and incubating for 1 hour at room temperature followed by washing 2 times with 150 μl TBST. A Fab antibody was serially diluted in 1% BSA in PBS. A 50 μl aliquot of each serial dilution was added, in triplicate, to each well and the plate was incubated for 1 hour at room temperature followed by washing 2 times with TBST. 50 μl of either goat anti-human kappa HRP conjugated secondary antibody (Cat # A7164-1 mL, Sigma-Aldrich) or goat anti-human lambda HRP conjugated secondary antibody (Cat # L1645-1 ml, Sigma-Aldrich), diluted 1:1000 in 1% BSA in PBS, was added to each well and the plate was incubated for 30 minutes at room temperature followed by washing 3 times with 200 μl TBST. Finally, 50 μl TMB one-component reagent (Cat # TMBW-1000-01, BioFax) was added and allowed to develop for 2 minutes at room temperature. The reaction was immediately halted by the addition of 50 μl 0.5M H₂SO₄ and the absorbance at 450 nm was measured using an ELISA plate reader.

[2] = molecular target: T1, recombinant mouse DLL4 (Cat# …); experiment: ELISA, mDLL4 coated 0.5 ng/ul, Fab 5.00 nM
Description: (§2) In this example, an ELISA binding assay was used to assess the dose-dependent binding of Fab antibodies to recombinant human DLL4 and recombinant mouse DLL4.
as §1

[3] = molecular target: T2, recombinant human DLL4 (Cat# 1506-D4/CF, R&D Systems) (human, UniProt Q9NR61 27-529); experiment: ELISA, hDLL4 coated 0.5 ng/ul, Fab 0.16 nM
T2 construct: Bought protein; also called hDLL4; h DLL4
Description: as §2, §1

[4] = molecular target: T1, recombinant mouse DLL4 (Cat# …); experiment: ELISA, mDLL4 coated 0.5 ng/ul, Fab 1.25 nM
Description: as §2, §1

[5] = molecular target: T2, recombinant human DLL4 (Cat# …); experiment: ELISA, hDLL4 coated 0.5 ng/ul, Fab 0.08 nM
Description: as §1

[6] = molecular target: T2, recombinant human DLL4 (Cat# …); experiment: ELISA, hDLL4 coated 0.5 ng/ul, Fab 1.25 nM
Description: as §2, §1

[7] = molecular target: T2, recombinant human DLL4 (Cat# …); experiment: ELISA, hDLL4 coated 0.5 ng/ul, Fab 0.63 nM
Description: as §1

[8] = molecular target: T1, recombinant mouse DLL4 (Cat# …); experiment: ELISA, mDLL4 coated 0.5 ng/ul, Fab 0.63 nM
Description: as §1

[9] = molecular target: T1, recombinant mouse DLL4 (Cat# …); experiment: ELISA, mDLL4 coated 0.5 ng/ul, Fab 10.00 nM
Description: as §1

[10] = molecular target: T2, recombinant human DLL4 (Cat# …); experiment: ELISA, hDLL4 coated 0.5 ng/ul, Fab 5.00 nM
Description: as §2, §1

[11] = molecular target: T1, recombinant mouse DLL4 (Cat# …); experiment: ELISA, mDLL4 coated 0.5 ng/ul, Fab 0.31 nM
Description: as §1

[12] = molecular target: T1, recombinant mouse DLL4 (Cat# …); experiment: ELISA, mDLL4 coated 0.5 ng/ul, Fab 0.16 nM
Description: as §1

[13] = molecular target: T2, recombinant human DLL4 (Cat# …); experiment: ELISA, hDLL4 coated 0.5 ng/ul, Fab 0.31 nM
Description: as §2, §1

[14] = molecular target: T2, recombinant human DLL4 (Cat# …); experiment: ELISA, hDLL4 coated 0.5 ng/ul, Fab 2.50 nM
Description: as §2, §1

[15] = molecular target: T2, recombinant human DLL4 (Cat# …); experiment: ELISA, hDLL4 coated 0.5 ng/ul, Fab 10.00 nM
Description: as §2, §1

[16] = molecular target: T1, recombinant mouse DLL4 (Cat# …); experiment: ELISA, mDLL4 coated 0.5 ng/ul, Fab 2.50 nM
Description: as §2, §1

[17] = molecular target: T3, full-length human DLL4 expressed on the surface of CHO cells (human, UniProt Q9NR61 26-685); experiment: flow cytometry competition, 250 nM biotinylated Notch-Fc as competitor, Fab 2 nM
T3 construct: also called CHO-DLL4; DLL4-expressing CHO cells
Description: (§3) Streptavidin-PE was used as a detection molecule.
(§4) Fab was 5-fold serially diluted in 2% BSA/PBS from a starting concentration of 50 nM. […] PE-labeled streptavidin (Cat# 21627, Pierce-Thermo Scientific) was then added to a final dilution of 1:5 followed by incubation for 10 minutes at room temperature. The cells were then washed twice in 2% BSA/PBS and analyzed by flow cytometry on a BD FACSAria.

[18] = molecular target: T3, full-length human DLL4 expressed on the …; experiment: flow cytometry competition, 250 nM biotinylated Notch-Fc as competitor, Fab 50 nM
Description: as §3, §4

[19] = molecular target: T3, full-length human DLL4 expressed on the …; experiment: flow cytometry competition, 250 nM biotinylated Notch-Fc as competitor, Fab 10 nM
Description: as §3, §4

T1 sequence (Q9JI71 28-525 limits assumed): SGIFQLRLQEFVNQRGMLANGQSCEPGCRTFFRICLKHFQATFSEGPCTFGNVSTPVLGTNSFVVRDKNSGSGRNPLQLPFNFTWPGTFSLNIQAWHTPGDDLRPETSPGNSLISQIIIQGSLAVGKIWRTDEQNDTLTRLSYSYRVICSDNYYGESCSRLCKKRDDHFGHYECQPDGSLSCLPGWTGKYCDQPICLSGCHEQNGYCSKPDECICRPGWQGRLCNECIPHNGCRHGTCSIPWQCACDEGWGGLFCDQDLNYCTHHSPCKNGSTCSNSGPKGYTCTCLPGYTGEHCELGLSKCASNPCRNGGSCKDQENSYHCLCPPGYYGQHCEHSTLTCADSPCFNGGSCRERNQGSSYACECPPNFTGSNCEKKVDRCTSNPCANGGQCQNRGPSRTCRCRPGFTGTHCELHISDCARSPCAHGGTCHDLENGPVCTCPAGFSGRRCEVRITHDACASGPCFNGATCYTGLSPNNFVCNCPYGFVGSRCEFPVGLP

ELISA absorbance at 450 nm [1]: 0.063 A450
ELISA absorbance at 450 nm [2]: 0.833 A450
ELISA absorbance at 450 nm [3]: 0.407 A450
ELISA absorbance at 450 nm [4]: 0.317 A450
ELISA absorbance at 450 nm [5]: 0.189 A450
ELISA absorbance at 450 nm [6]: 1.4 A450
ELISA absorbance at 450 nm [7]: 1.09 A450
ELISA absorbance at 450 nm [8]: 0.206 A450
ELISA absorbance at 450 nm [9]: 1.22 A450
ELISA absorbance at 450 nm [10]: 1.92 A450
ELISA absorbance at 450 nm [11]: 0.105 A450
ELISA absorbance at 450 nm [12]: 0.081 A450
ELISA absorbance at 450 nm [13]: 0.683 A450
ELISA absorbance at 450 nm [14]: 1.83 A450
ELISA absorbance at 450 nm [15]: 2.25 A450
ELISA absorbance at 450 nm [16]: 0.583 A450
B1: Fab VH1-46_IGHD6-6*01_IGHJ1*01 S102A/S103P/S104F/H111F I51V/N52L/S54T/G56H (H:APFF VLTH) & L6_IGKJ1*01 S28N/S30D/S31H (L:NDH) (Fab, V domains shown)
VH: QVQLVQSGAEVKKPGASVKVSCKASGYTFTSYYMHWVRQAPGQGLEWMGIVLPTGHSTSYAQKFQGRVTMTRDTSTSTVYMELSSLRSEDTAVYYCAREEYAPFSAEYFQFWGQGTLVTVSS
VL: EIVLTQSPATLSLSPGERATLSCRASQNVDHYLAWYQQKPGQAPRLLIYDASNRATGIPARFSGSGSGTDFTLTISSLEPEDFAVYYCQQRSNWPPWTFGQGTKVEIKR
notes: Tested as Fab from E. coli (Plasmid A: CH1, His6, Flag; Plasmid C: CL kappa); also called H:APFF VLTH & L:NDH; APFF VLTH / NDH

ELISA absorbance at 450 nm [1]: 0.078 A450
ELISA absorbance at 450 nm [2]: 1.28 A450
ELISA absorbance at 450 nm [3]: 0.593 A450
signal of Notch-Fc bound to CHO-DLL4 (streptavidin-PE) [17]: 117
ELISA absorbance at 450 nm [4]: 0.604 A450
ELISA absorbance at 450 nm [5]: 0.259 A450
ELISA absorbance at 450 nm [6]: 1.65 A450
ELISA absorbance at 450 nm [7]: 1.4 A450
ELISA absorbance at 450 nm [8]: 0.404 A450
ELISA absorbance at 450 nm [9]: 1.55 A450
ELISA absorbance at 450 nm [10]: 2.06 A450
ELISA absorbance at 450 nm [11]: 0.205 A450
ELISA absorbance at 450 nm [12]: 0.142 A450
ELISA absorbance at 450 nm [13]: 0.85 A450
ELISA absorbance at 450 nm [14]: 1.96 A450
ELISA absorbance at 450 nm [15]: 2.25 A450
ELISA absorbance at 450 nm [16]: 0.983 A450
signal of Notch-Fc bound to CHO-DLL4 (streptavidin-PE) [18]: 30
signal of Notch-Fc bound to CHO-DLL4 (streptavidin-PE) [19]: 30
B2: Fab VH1-46_IGHD6-6*01_IGHJ1*01 S102A/S103P/S104F/H111F I51V/N52L/S54T/G56H (H:APFF VLTH) & L6_IGKJ1*01 S28N/S30D/S31H S52L/A55S (L:NDH LS) (Fab, V domains shown)
VH: B1 VH
VL: B1 VL with S52L, A55S
notes: Tested as Fab from E. coli (Plasmid A: CH1, His6, Flag; Plasmid C: CL kappa); also called H:APFF VLTH & L:NDH LS; APFF VLTH / NDH LS

ELISA absorbance at 450 nm [1]: 0.048 A450
ELISA absorbance at 450 nm [2]: 0.07 A450
ELISA absorbance at 450 nm [3]: 0.079 A450
ELISA absorbance at 450 nm [4]: 0.054 A450
ELISA absorbance at 450 nm [5]: 0.071 A450
ELISA absorbance at 450 nm [6]: 0.264 A450
ELISA absorbance at 450 nm [7]: 0.168 A450
ELISA absorbance at 450 nm [8]: 0.052 A450
ELISA absorbance at 450 nm [9]: 0.088 A450
ELISA absorbance at 450 nm [10]: 0.882 A450
ELISA absorbance at 450 nm [11]: 0.049 A450
ELISA absorbance at 450 nm [12]: 0.048 A450
ELISA absorbance at 450 nm [13]: 0.103 A450
ELISA absorbance at 450 nm [14]: 0.535 A450
ELISA absorbance at 450 nm [15]: 1.2 A450
ELISA absorbance at 450 nm [16]: 0.061 A450
B3: Fab VH1-46_IGHD6-6*01_IGHJ1*01 S102A/S103P/S104F/H111F G56H (H:APFF G56H) & L6_IGKJ1*01 (Fab, V domains shown)
VH: B1 VH with V51I, L52N, T54S
VL: not shown
notes: Tested as Fab from E. coli: VH cloned into Plasmid A (CH1, His6 and Flag tags), kappa VL into Plasmid C (CL kappa); also called H:APFF G56H & L:wt
